Data taken from US20070054846A1, “Bcl-w structure and uses therefor” (priority 2002, published 2007).
Substitutions are numbered along the chain they refer to. Names and notes keep the numbering of the source.

Assays:
[1] = target: T1, Bim (UniProt O54918-2 1-140, limits assumed); assay: not described
T1 construct: also called BH3-only protein Bim
T1 sequence (looked up): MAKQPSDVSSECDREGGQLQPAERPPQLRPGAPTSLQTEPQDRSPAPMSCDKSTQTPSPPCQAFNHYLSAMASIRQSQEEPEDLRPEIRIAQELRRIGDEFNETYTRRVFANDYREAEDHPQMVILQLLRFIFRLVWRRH

[2] = target: T2, BimLΔC27 (mouse, UniProt O54918-2 1-113); assay: SPR (BIAcore 2000), BimLΔC27 immobilised
T2 construct: Truncation by 27 C-terminal residues is stated, the end residue is not; Numbering (L94) is that of the BimL isoform, not of the canonical BimEL entry; Immobilised on the CM5 chip in SPR; soluble protein in GST pull-downs; also called C-terminally truncated BimL; wt BimLΔC27
T2 sequence: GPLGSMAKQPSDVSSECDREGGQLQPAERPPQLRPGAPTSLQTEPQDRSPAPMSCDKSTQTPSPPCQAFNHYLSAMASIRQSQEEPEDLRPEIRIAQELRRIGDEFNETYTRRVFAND
Experimental: (§1) Similar results were obtained when a corresponding mutation (L138A) was introduced into another BH3-only protein, Bmf (not shown).
(§2) Analysis of protein interactions by surface plasmon resonance was carried out on a BIAcore 2000 biosensor (BIAcore). For the immobilisation to BIAcore CM 5 sensorchips (BIAcore), wild-type or mutant Bim proteins were buffer exchanged into 20 mM Na-acetate, pH 4.5. N-hydroxysuccinimide coupling and binding analysis was done as described previously (Lackmann et al., 1997). In order to minimise mass-transport mediated effects the kinetic experiments were routinely carried out at 20 μl/min. Bcl-w binding at concentrations between 2 and 0.03 μM in running buffer (10 mM HEPES, pH 7.4, 150 mM NaCl, 3.4 mM EDTA, 0.005% Tween 20) was performed on sensorchip surfaces derivatised on parallel channels with a non-relevant protein, BimLΔC27 and BimLΔC27-L94A. The binding kinetics were derived from the sensorgrams following subtraction of baseline responses (measured on the control channel) by ‘global analysis’ using the BIA Evaluation software (vers. 3.02, BIAcore).

[3] = target: T3, BimLΔC27-L94A (mouse, UniProt O54918-2 1-113); assay: SPR (BIAcore 2000), BimLΔC27-L94A immobilised; Bcl-w truncated by 29 residues (Bcl-wΔC29)
T3 construct: also called Bim containing the L94 mutation; L94A mutant
T3 sequence: T2 sequence with L99A
Experimental: as §1, §2

[4] = target: T2, BimLΔC27; assay: SPR (BIAcore 2000), global fit to a 1:1 Langmuir model. Sheet heads Bcl-w 'Immobilized' and Bim 'Analyte'; text says Bim immobilised, Bcl-w in solution
Experimental: (§3) FIG. 3A is a table showing the binding constants for various Bcl-w-BH3-only ligand complexes, which were determined using Biosensor experiments as described herein. FIG. 3B is a graphical representation showing the interaction kinetics of Bcl-w binding to BimLΔC27. Samples of serially diluted Bcl-w (2 μM-62.5 nM) were analysed on a BimLΔC27 sensor surface as described in Experimental Procedures. […] FIG. 3C is a graphical representation showing the interaction kinetics of Bcl-w or Bcl-wΔC29 binding to BimLΔC27 or BimLΔC27-L94A. […] Relative responses of samples between 1 μM and 62.5 nM are shown. FIG. 3D is a photographic representation of a GST pull-down assay to assess the binding capacity of Bcl-w proteins. Approximately equivalent amounts of the indicated GST-Bcl-w proteins were mixed with either soluble wt BimLΔC27 or soluble BimLΔC27-L94A. The intensity of the Bim band indicated the amount of protein that bound to Bcl-w. Molecular weight standards in kDa are indicated.
as §2, with “3.02, BIAcore). The surface of the chip was regenerated with 50 mM 1,2-diethylamine containing 0.1% Triton X100, followed by two washes with running buffer.” for “3.02, BIAcore).”

[5] = target: T3, BimLΔC27-L94A; assay: as above
Experimental: as §3
as §2, with “3.02, BIAcore). The surface of the chip was regenerated with 50 mM 1,2-diethylamine containing 0.1% Triton X100, followed by two washes with running buffer.” for “3.02, BIAcore).”

[6] = target: T3, BimLΔC27-L94A; assay: SPR (BIAcore 2000)
Experimental: as §1, §2

[7] = target: T3, BimLΔC27-L94A; assay: SPR (BIAcore 2000), BimLΔC27-L94A immobilised, Bcl-w in solution; full-length Bcl-w
Experimental: as §1, §2

[8] = target: T2, BimLΔC27; assay: SPR (BIAcore 2000), BimLΔC27 immobilised, Bcl-w in solution, global 1:1 Langmuir fit
Experimental: as §1, §2

[9] = target: T4, Bim-BH3 peptide (mouse); assay: NMR, 15N-NOESY-HSQC chemical shift changes
T4 peptide: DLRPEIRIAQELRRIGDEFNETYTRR

[10] = target: T5, FLAG Bcl-xL (full-length) (UniProt Q07817 1-233); assay: co-immunoprecipitation from 35S-labelled 293T lysates with anti-FLAG (α-F), anti-EE (α-E) and control anti-HA (α-H) [upper right gel]
T5 construct: also called FLAG-tagged full-length Bcl-xL; not shown: FLAG tag
Text: FIG. 4 comprises photographic representations showing that the in vivo and in vitro binding properties of Bcl-xL resemble that of Bcl-w. FIG. 4A is a photographic representation showing that the C-terminus of Bcl-w restricts access to the binding groove in vivo. Equivalent ³⁵S-labeled 293T lysates obtained from cells co-expressing FLAG Bcl-w or Bcl-wΔC29, and EE-BimEL or BimEL-L150A, were immunoprecipitated using the anti-FLAG M2 (α-F), anti-EE (α-E) or control anti-HA (α-H) monoclonal antibodies. The immunoprecipitations were fractionated on SDS-PAGE gels. FIG. 4B is a photographic representation showing that the C-terminus of Bcl-xL restricts access to the binding groove in vivo. Co-precipitation experiments similar to those described in FIG. 4A using lysates from cells co-expressing FLAG Bcl-xL or Bcl-xLΔC24, and EE-BimL or BimL-L94A. […]
Cell culture, stable transfections into FDC-P1, transient transfections into 293T human embryonic kidney cells, metabolic labelling with ³⁵S-methionine/cysteine (NEN) and co-immunoprecipitation have been previously described (O'Connor et al., 1998, Moriishi et al., 1999; Huang et al., 1998; Wilson-Annan et al., 2003). […] The immunoprecipitates were resolved by SDS-PAGE (Novex), transferred onto nitrocellulose membranes (APB) and the proteins detected by fluorography (Amplify; APB).

T5 sequence (Q07817 whole entry): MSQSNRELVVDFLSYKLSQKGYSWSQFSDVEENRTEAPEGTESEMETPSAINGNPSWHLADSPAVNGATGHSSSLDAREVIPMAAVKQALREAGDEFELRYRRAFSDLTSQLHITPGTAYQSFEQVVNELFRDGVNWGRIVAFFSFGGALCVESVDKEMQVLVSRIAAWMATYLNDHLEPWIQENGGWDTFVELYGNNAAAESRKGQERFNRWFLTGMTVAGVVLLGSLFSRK

B1: Bcl-w with Arg95 mutated to Ala (other)
chain: MATPASAPDTRALVADFVGYKLRQKGYVCGAGPGEGPAADPLHQAMRAAGDEFETRFRRTFSDLAAQLHVTPGSAQQRFTQVSDELFQGGPNWGALVAFFVFGAALCAESVNKEMEPLVGQVQEWMVAYLETRLADWIHSSGGWAEFTALYGDGALEEARRLREGNWASVRTVLTGAVALGALVTVGAFFASK
notes: Construct and assay not described; also called Bcl-w R95A
- binding result [1]: no binding

B2: Bcl-wΔC29 (purified recombinant protein) (other)
chain: GPLGSMATPASAPDTRALVADFVGYKLRQKGYVCGAGPGEGPAADPLHQAMRAAGDEFETRFRRTFSDLAAQLHVTPGSAQQRFTQVSDELFQGGPNWGRLVAFFVFGAALCAESVNKEMEPLVGQVQEWMVAYLETRLADWIHSSGGWAEFTALYGDGALEEARRLRE
notes: Residue limits 1-164 follow from 193 aa minus 29; also called Bcl-w truncated by 29 residues at the C-terminus
- Kd [2]: 11 nM
- fold increase in the association rate against full-length Bcl-w [2]: 3 fold
- Kd [3]: 13 nM
- koff [4]: 0.0061 s⁻¹
- kon [4]: 570000 M⁻¹ s⁻¹
- koff [5]: 0.0028 s⁻¹
- kon [5]: 210000 M⁻¹ s⁻¹

B3: Bcl-w (full-length, purified recombinant protein) (other)
chain: GPLGSMATPASAPDTRALVADFVGYKLRQKGYVCGAGPGEGPAADPLHQAMRAAGDEFETRFRRTFSDLAAQLHVTPGSAQQRFTQVSDELFQGGPNWGRLVAFFVFGAALCAESVNKEMEPLVGQVQEWMVAYLETRLADWIHSSGGWAEFTALYGDGALEEARRLREGNWASVRTVLTGAVALGALVTVGAFFASK
notes: Expressed as GST fusion in E. coli, released with PreScission protease; analyte in solution in the BIAcore experiments; also called full length Bcl-w; wild-type Bcl-w
- fold decrease in the association rate against BimLΔC27 [6]: 10 fold
- fold increase in the dissociation rate against BimLΔC27 [6]: 5 fold
- fold reduction of affinity against BimLΔC27 [6]: > 60 fold
- Kd [7]: 1600 nM
- Kd [8]: 24 nM
- koff [4]: 0.0043 s⁻¹
- kon [4]: 180000 M⁻¹ s⁻¹
- koff [5]: 0.02 s⁻¹
- kon [5]: 13000 M⁻¹ s⁻¹

B4: Bcl-wΔC10 (A128E), purified, NMR sample (other)
chain: GPLGSMATPASAPDTRALVADFVGYKLRQKGYVCGAGPGEGPAADPLHQAMRAAGDEFETRFRRTFSDLAAQLHVTPGSAQQRFTQVSDELFQGGPNWGRLVAFFVFGAALCAESVNKEMEPLVGQVQEWMVEYLETRLADWIHSSGGWAEFTALYGDGALEEARRLREGNWASVRTVLTGAVALGAL
notes: Isotope-labelled (15N) protein for the NOESY-HSQC with the Bim-BH3 peptide
- binding result [9]: binds

B5: EE-BimL-L94A (ligand, UniProt O54918-2 1-140, looked up)
chain: T1 sequence (looked up) with L94A
notes: also called L94A mutant; not shown: EE (Glu-Glu) tag
- binding result [10]: no binding
